Values belong to the sequence of their own block, whether it stands above or below them.
What was measured:
HLA-A*11:01 [1] = assay: IEDB peptide-MHC binding, purified MHC/competitive/fluorescence; ≥ and ≤ were set here for values at or beyond the usual limits of such assays
HLA-A*02:01 [2] = assay: as above; details: source organism: Zaire ebolavirus
HLA-B*39:01 [3] = assay: IEDB peptide-MHC binding, purified MHC/direct/fluorescence; filed as Kd, often an IC50 or EC50 that approximates it; ≥ and ≤ were set here for values at or beyond the usual limits of such assays
HLA-B*15:42 = assay: IEDB peptide-MHC binding, purified MHC/competitive/fluorescence; filed as Kd, often an IC50 or EC50 that approximates it; ≥ and ≤ were set here for values at or beyond the usual limits of such assays; details: source organism: human gammaherpesvirus 4
HLA-B*45:06 = assay: as above; details: source organism: human gammaherpesvirus 4
HLA-B*83:01 = assay: as above; details: source organism: human gammaherpesvirus 4
HLA-C*05:01 = assay: IEDB peptide-MHC binding, purified MHC/direct/fluorescence; filed as Kd, often an IC50 or EC50 that approximates it; ≥ and ≤ were set here for values at or beyond the usual limits of such assays
HLA-A*24:02 [4] = assay: IEDB peptide-MHC binding, purified MHC/competitive/fluorescence; ≥ and ≤ were set here for values at or beyond the usual limits of such assays
HLA-A*03:01 [5] = assay: as above
HLA-A*69:01 [6] = assay: IEDB peptide-MHC binding, purified MHC/direct/fluorescence; filed as Kd, often an IC50 or EC50 that approximates it; ≥ and ≤ were set here for values at or beyond the usual limits of such assays
HLA-A*02:19 = assay: as above; details: source organism: Orthohantavirus sangassouense
HLA-A*02:12 = assay: as above; details: source organism: Orthohantavirus sangassouense
HLA-A*02:01 [7] = assay: as above
HLA-A*02:11 = assay: as above; details: source organism: Orthohantavirus sangassouense
HLA-B*15:17 [8] = assay: as above
HLA-B*53:01 = assay: IEDB peptide-MHC binding, purified MHC/competitive/radioactivity; filed as Kd, often an IC50 or EC50 that approximates it; ≥ and ≤ were set here for values at or beyond the usual limits of such assays; details: source organism: Dengue virus 2 Jamaica/1409/1983
HLA-A*24:02 [9] = assay: as above; details: source organism: Dengue virus 2 Jamaica/1409/1983
HLA-B*57:01 [10] = assay: as above; details: source organism: Dengue virus 2 Jamaica/1409/1983
HLA-A*11:01 [11] = assay: IEDB peptide-MHC binding, purified MHC/direct/fluorescence; filed as Kd, often an IC50 or EC50 that approximates it; ≥ and ≤ were set here for values at or beyond the usual limits of such assays
HLA-A*01:01 = assay: as above; details: source organism: Escherichia coli O157:H7
HLA-A*26:01 [12] = assay: as above; details: source organism: Escherichia coli O157:H7
HLA-A*31:01 = assay: as above; details: source organism: Escherichia coli O157:H7
HLA-B*58:01 = assay: as above; details: source organism: Escherichia coli O157:H7
HLA-B*15:01 [13] = assay: as above; details: source organism: Escherichia coli O157:H7
HLA-B*27:05 = assay: as above; details: source organism: Escherichia coli O157:H7
HLA-A*03:01 [14] = assay: as above; details: source organism: Escherichia coli O157:H7
HLA-B*08:01 = assay: as above; details: source organism: Escherichia coli O157:H7
HLA-B*57:01 [15] = assay: as above; details: source organism: Escherichia coli O157:H7
HLA-B*44:02 = assay: as above; details: source organism: Escherichia coli O157:H7
HLA-B*07:02 = assay: as above; details: source organism: Escherichia coli O157:H7
HLA-B*40:01 = assay: as above; details: source organism: Escherichia coli O157:H7
HLA-A*26:01 [16] = assay: IEDB peptide-MHC binding, purified MHC/competitive/fluorescence; filed as Kd, often an IC50 or EC50 that approximates it; ≥ and ≤ were set here for values at or beyond the usual limits of such assays
HLA-B*46:01 = assay: as above
HLA-B*15:17 [17] = assay: as above; details: source organism: Homo sapiens
HLA-B*27:03 = assay: as above
HLA-B*51:01 = assay: as above; details: source organism: Homo sapiens
HLA-B*18:01 = assay: as above
HLA-B*57:01 [18] = assay: as above
HLA-B*39:01 [19] = assay: as above
HLA-A*03:01 [20] = assay: as above
HLA-A*69:01 [21] = assay: as above; details: source organism: Homo sapiens
HLA-B*15:01 [22] = assay: as above
HLA-A*02:01 [23] = assay: as above; details: source organism: Staphylococcus aureus subsp. aureus N315
[24] = source organism: Zaire ebolavirus
[25] = source organism: Vaccinia virus Copenhagen
[26] = source organism: Sudan ebolavirus
[27] = source organism: Escherichia coli O157:H7
[28] = source organism: Staphylococcus aureus subsp. aureus N315

Sequence: ATISTSPQS
IC50 (HLA-A*11:01 [1]; [24]): 17.5 µM
IC50 (HLA-A*02:01 [2]): ≥ 108 µM

Sequence: FHDSNVKNL
Kd (HLA-B*39:01 [3]; source organism: Influenza A virus (A/chicken/Nakorn-Patom/Thailand/CU-K3/2004(H5N1))): 0.168 µM

Sequence: FHFFVHTLL
Kd (HLA-B*39:01 [3]; source organism: Camelpox virus M-96): 0.052 µM

Sequence: FLDKGTYTL
Kd (HLA-B*15:42): ≥ 5 µM
Kd (HLA-B*45:06): ≥ 5 µM
Kd (HLA-B*83:01): ≥ 5 µM
Kd (HLA-C*05:01; source organism: human gammaherpesvirus 4): ≤ 0.001 µM

Kd (HLA-B*39:01 [3]; source organism: Escherichia coli O157:H7 str. EC869): 0.01 µM
Sequence: FRAICTNGL

Sequence: FYRSGTETK
IC50 (HLA-A*11:01 [1]; [25]): 44.1 µM
IC50 (HLA-A*24:02 [4]; [25]): ≥ 99.2 µM
IC50 (HLA-A*03:01 [5]; [25]): 64.2 µM

Sequence: GEESASSGK
IC50 (HLA-A*11:01 [1]; [24]): ≥ 314 µM

Sequence: GIYTEGLMH
IC50 (HLA-A*11:01 [1]; [26]): 3.55 µM
IC50 (HLA-A*03:01 [5]; [26]): 15.4 µM

Sequence: GLYPAQIKA
Kd (HLA-A*69:01 [6]; source organism: Amur virus): ≥ 20 µM
Kd (HLA-A*02:19): ≥ 20 µM
Kd (HLA-A*02:12): 0.126 µM
Kd (HLA-A*02:01 [7]; source organism: Amur virus): 0.0035 µM
Kd (HLA-A*02:11): 0.033 µM

Sequence: GTNTTTEDH
IC50 (HLA-A*11:01 [1]; [24]): ≥ 76.9 µM

Sequence: ITAAAWYLW
Kd (HLA-B*15:17 [8]; source organism: dengue virus type 2): 0.0067 µM
Kd (HLA-B*53:01): 0.174 µM
Kd (HLA-A*24:02 [9]): 0.0215 µM
Kd (HLA-B*57:01 [10]): 0.000477 µM

Sequence: KIDNNTFVR
IC50 (HLA-A*11:01 [1]; [26]): 2.74 µM
IC50 (HLA-A*03:01 [5]; [26]): 31.9 µM

Sequence: KSMRDQRKG
IC50 (HLA-A*11:01 [1]; source organism: Variola virus): 47.3 µM
IC50 (HLA-A*03:01 [5]; source organism: Variola virus): ≥ 119 µM

Kd (HLA-A*11:01 [11]; [27]): ≥ 20 µM
Kd (HLA-A*69:01 [6]; [27]): ≥ 20 µM
Kd (HLA-A*01:01): ≥ 20 µM
Kd (HLA-A*26:01 [12]): ≥ 20 µM
Kd (HLA-A*31:01): 0.333 µM
Kd (HLA-B*15:17 [8]; [27]): 0.0278 µM
Kd (HLA-B*58:01): 0.0475 µM
Kd (HLA-B*15:01 [13]): ≥ 20 µM
Kd (HLA-B*27:05): ≥ 20 µM
Kd (HLA-A*03:01 [14]): ≥ 20 µM
Kd (HLA-B*08:01): ≥ 20 µM
Kd (HLA-A*02:01 [7]; [27]): ≥ 20 µM
Kd (HLA-B*57:01 [15]): 0.215 µM
Kd (HLA-B*44:02): ≥ 20 µM
Kd (HLA-B*07:02): ≥ 20 µM
Kd (HLA-B*40:01): ≥ 20 µM
Sequence: KTTIKFHPW

Sequence: LITGGRRTR
IC50 (HLA-A*11:01 [1]; [24]): ≥ 93.3 µM
IC50 (HLA-A*03:01 [5]; [24]): ≥ 112 µM
IC50 (HLA-A*02:01 [2]): ≥ 111 µM

Kd (HLA-A*26:01 [16]; source organism: Homo sapiens): ≥ 20 µM
Kd (HLA-B*46:01; source organism: Homo sapiens): ≥ 20 µM
Kd (HLA-B*15:17 [17]): ≥ 20 µM
Kd (HLA-B*27:03; source organism: Homo sapiens): ≥ 20 µM
Kd (HLA-B*51:01): ≥ 20 µM
Kd (HLA-B*18:01; source organism: Homo sapiens): ≥ 20 µM
Kd (HLA-B*57:01 [18]; source organism: Homo sapiens): ≥ 20 µM
Kd (HLA-B*39:01 [19]; source organism: Homo sapiens): ≥ 20 µM
Kd (HLA-A*02:01 [7]; source organism: Homo sapiens): 0.0002 µM
Sequence: LLAMTFWPA

Sequence: LLLKERGLH
Kd (HLA-A*03:01 [20]; source organism: Vibrio parahaemolyticus AQ3810): ≥ 20 µM

Kd (HLA-A*69:01 [21]): ≥ 20 µM
Kd (HLA-A*26:01 [16]; source organism: Homo sapiens): ≥ 20 µM
Kd (HLA-B*46:01; source organism: Homo sapiens): ≥ 20 µM
Kd (HLA-B*15:17 [17]): ≥ 20 µM
Kd (HLA-B*15:01 [22]; source organism: Homo sapiens): ≥ 20 µM
Kd (HLA-B*27:03; source organism: Homo sapiens): ≥ 20 µM
Kd (HLA-B*51:01): ≥ 20 µM
Kd (HLA-B*18:01; source organism: Homo sapiens): ≥ 20 µM
Kd (HLA-B*57:01 [18]; source organism: Homo sapiens): ≥ 20 µM
Kd (HLA-B*39:01 [19]; source organism: Homo sapiens): ≥ 20 µM
Sequence: LMQCWQLLA

Kd (HLA-A*03:01 [20]; source organism: Homo sapiens): 0.455 µM
Sequence: LSSSVPSQK

Sequence: SGYYSTTIR
IC50 (HLA-A*11:01 [1]; [24]): 0.903 µM
IC50 (HLA-A*24:02 [4]; [24]): ≥ 346 µM
IC50 (HLA-A*03:01 [5]; [24]): 1.67 µM

Sequence: STTLFKIDN
IC50 (HLA-A*11:01 [1]; [26]): ≥ 146 µM

Kd (HLA-A*11:01 [11]; source organism: Homo sapiens): ≥ 32.6 µM
Kd (HLA-C*05:01; source organism: Mus musculus): ≥ 20 µM
Sequence: TFDVAPSRL

Sequence: VILNYIPVL
Kd (HLA-A*26:01 [16]; [28]): ≥ 20 µM
Kd (HLA-B*46:01; [28]): ≥ 20 µM
Kd (HLA-B*15:01 [22]; [28]): ≥ 20 µM
Kd (HLA-B*27:03; [28]): ≥ 20 µM
Kd (HLA-A*03:01 [20]; [28]): ≥ 20 µM
Kd (HLA-B*18:01; [28]): ≥ 20 µM
Kd (HLA-A*02:01 [23]): 0.0006 µM
Kd (HLA-B*57:01 [18]; [28]): ≥ 20 µM
Kd (HLA-B*39:01 [19]; [28]): ≥ 20 µM

Kd (HLA-A*69:01 [21]): ≥ 20 µM
Kd (HLA-A*26:01 [16]; source organism: Homo sapiens): ≥ 20 µM
Kd (HLA-B*46:01; source organism: Homo sapiens): ≥ 20 µM
Kd (HLA-B*15:01 [22]; source organism: Homo sapiens): ≥ 20 µM
Kd (HLA-B*27:03; source organism: Homo sapiens): ≥ 20 µM
Kd (HLA-B*51:01): ≥ 20 µM
Kd (HLA-B*57:01 [18]; source organism: Homo sapiens): ≥ 20 µM
Sequence: WMFRIRIIL

Source: the Immune Epitope Database (IEDB)
